{"source": "the NTF2 design screens of Basanta et al. (2020)", "assay": "protease stability score; higher = more stable; yeast display proteolysis, trypsin and chymotrypsin;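 further: relative to predicted unfolded state with 0 unfolded-like and 1 meaning tenfold more protease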"}
{"sequence": "DEDEELVETHIRHEIRSAKTGDEESLHRLLDPNTRIEIGDKVFVGRETFTKWLRKLLHDAGVSKFEVHVRDMEIQGEKLILDGEWHINGVTIRTRIIVHKVNGRWHNKHMQME", "values": [{"measurement": "protease stability score", "value": 0.582}]}
{"sequence": "DEDEELVKEWFEILMHKVITGDEDTLRNLADPNVRVDINGRDHHGREKFIEVYRRLWEDFGIDYIDSDVEEMKVYDGQAEVTIRLEIRFNGRTLELTTHYDVEKVDGKWRLRRHEVR", "values": [{"measurement": "protease stability score", "value": 1.29}]}
{"sequence": "DEDEELVKKFFKEHSESNRTGDWHTIMKQADPNARIFINGVILHGRELFTEHMMRMVRRADHFHFHLEDMRVINGRAELDVHVHLNINGKIDNVETHFIVIKINGRWRLEESRFH", "values": [{"measurement": "protease stability score", "value": 0.661}]}
{"sequence": "DEDEELVRHAYEDWLHTVRTGDEHTLNKLFDPHVRMHYDGVESHGWRIAHHFHRRFKNMQVRIDDEHIEVYGEFARVESKITLDVGEYKIDLTLIVIMIKVNGRWKIHSVRIEKR", "values": [{"measurement": "protease stability score", "value": 1.17}]}
{"sequence": "DEDEELYEKFTRDLNHSLMTGDEEVMRELADPHVKVDFNGRELHGWEAVTFLLRVMGIDHLELKDIRLQGDKARNYTILRFNGRTSTLIVVLHKVNGKWIIESFEYR", "values": [{"measurement": "protease stability score", "value": 1.07}]}
{"sequence": "DEDEEMAHWAMEVLTKLIRTGDEDTILDMIDPHARIVYGDKTHHGREHFEKIIHELGVKVFEVHEIENQGEKVTIHGRQHVNGRTYDVKLFVQKVNGRWYIKRVHIK", "values": [{"measurement": "protease stability score", "value": 1.42}]}
{"sequence": "DEDEEMFHRAVRLLLEHSRTGDEELTTKMADPHVKVDINGRDLIGRESYSRWWSEKAEQMRIDFRFRRVEVFDGVIFIDFKLIVDVNGRRLEFELHILILKIDGRWIIKEVHVK", "values": [{"measurement": "protease stability score", "value": 0.68}]}
{"sequence": "DEDEEMMEHLIRILVEVLKTGDWKELLKLADPHVRQDVNGVDIHGREDVSRRLANQAKELRLELHLQDVKVWNGRVDFDSRLHINQGEKYVQLHVRIITEKIDGRWRITEIHVR", "values": [{"measurement": "protease stability score", "value": 1.62}]}
{"sequence": "DEDEEMSERLSRIIVKALRTGNEHVLRRLVDPDVLSSIDGRKHHGWEDWHEFLKRLGHENVDVQLEHLRFQGNKIELDMILRVGDKTHTQHIHILKVDGRWTMHEVRIK", "values": [{"measurement": "protease stability score", "value": 1.42}]}
{"sequence": "DEDEEMSKLLLEVSERVIETGDEHLWTRLLDPNVRIHLIIGDKTIELIGRERAHELLHHILERYKNATLRLRSVEIQGDKVIVESELNVGDKRIKQIYIWTKINGQWVLEEVNIEVR", "values": [{"measurement": "protease stability score", "value": 1.44}]}
{"sequence": "DEDEEMSRIALNLFIHAMDTGDEHTLTHLMDPNVQLQINGREIIGREEVIRFVRELGVKHVKSHRLRDMELQGDKIIIDAEVEESQGDKEHHFRHTIVFRKVNGRWIIQSIKIK", "values": [{"measurement": "protease stability score", "value": 2.13}]}
{"sequence": "DEDEEMVEKALELMAETHETGDEDTLHDFFDPHTRMELQIGDKTIRDHGRHAMHWLLRILGINHIEIHHRTVRLINGRIHLHINGSINVNGQEIESRIHIYSEKIDGRWRVTRLEYRFH", "values": [{"measurement": "protease stability score", "value": 1.31}]}
{"sequence": "DEDEENAKMFTELLWRVLLTGDEELFKEMADPHVRVIFDGREIHGRDDIAHWITEMRFEINILRINDVRLVGDYIKIDGTMERQGEINGKRIRSSHRIIIFVRKINGKWHLEQLHFS", "values": [{"measurement": "protease stability score", "value": 2.26}]}
{"sequence": "DEDEENARKVSKKYKEIVLTGDEHALERLIDPNVRIDFNGKEFHGREDLSRLFHERFKRADHIEFDVKHINVQGNKVDLDVREIEIVGDKTHVHNVILHVLKIDGRWLIKEIRVH", "values": [{"measurement": "protease stability score", "value": 1.26}]}
{"sequence": "DEDEENARRFIHELSRILETGDEERLDEMADPDVRIIIGEKHLHGREEFRKWMRHLLKRVKNMQIEVQLTSSEIVGEWVNLDTTLIIRVGDKHYEHRTVVIVLKIDGRWFLHQIHFK", "values": [{"measurement": "protease stability score", "value": 1.79}]}
{"sequence": "DEDEENFERLVHLTLHYLLTGDFEDFNHLADPHVKLNVNGQQHVGREKWSELLHLFGINHMQIEERDLRVIGDKVRLDVRGTSQVGDKEHEVHIHIHAQKVNGRWTVTEMQINTE", "values": [{"measurement": "protease stability score", "value": 2.1}]}
{"sequence": "DEDEENIRKEVEIFKHLLETGNEQEMSKLADPNTRFYYGDKTIHGREEMIKFLHEEWRHLGVKHNEYRVKEMRSINGRAIIHGELIWKSENEIIHRDVLIIARKVDGKWVSESVHVH", "values": [{"measurement": "protease stability score", "value": 1.23}]}
{"sequence": "DEDEENTRKLLESYIRVFRTGDEDRMIELADPDVRLKIDGVTRHGREDWMRHWLNLVERMGANVSELTRFDVFDGQVHSHHKLVQGDKERKMHLILIKVDGRWFLHEISEQ", "values": [{"measurement": "protease stability score", "value": 0.157}]}
{"sequence": "DEDEENTRQAIDRIIRSWMTGDEKTMTELLDPRVRVEQGDKEFHGREDYTRWINEMRITHIDLRSIEKIDGRLHVHLEFDESVNGKRHRVDVELTIVKINGQWFLESVRIR", "values": [{"measurement": "protease stability score", "value": 0.681}]}
{"sequence": "DEDEEQAEKMIKIWIHDMATGNEESLVRLADPRVRSEVDGVQLHGRESLRKFLHDEWRDLGVDRIQVHVRRYHVFDGRLHLDGEVIVNGQDKTMHIVLIKVDGRWHLKSVHFR", "values": [{"measurement": "protease stability score", "value": 2.14}]}
{"sequence": "DEDEEQAERAIRIYTEVLNTGNEEESERMADPHVRIIVNGVILHGREMFYQYVHEWRVDIRVILRHVKVFEGWVDVEGEFNSHLEVNGRHENNRSKVRLHILKVNGVWLIHEVRVH", "values": [{"measurement": "protease stability score", "value": 1.5}]}
{"sequence": "DEDEEQARRLAELIRHLLITGDEYVNRKMADPRVQFILHQGDKNYLHHGRDEVVRRLRELWEEWGFDQIHVNLDDVKIVNGRVIIHTRLQVGDKHMELRFIIEKIDGKWLVTHEQIHLH", "values": [{"measurement": "protease stability score", "value": 1.62}]}
{"sequence": "DEDEEQLHEMVRIFLENMQTGNFEALLNYMDPNAKRRDVQGDKDITYIGREQAKEHDEKLDRHLGVKHFEIKRITIQGEKADIDTRLLFNGQLRDVRIHIIIVNGKLSYLEVQID", "values": [{"measurement": "protease stability score", "value": 0.897}]}
{"sequence": "DEDEEQLKEMWREFLEASRTGDEHRIKELADPNARLRQGDKRFHGREEFSRLIVEMRIRHIEIRRIRVVGDKIEITTELHVIYNGQHIEVDTHVIILKVNGRWSLTEMEER", "values": [{"measurement": "protease stability score", "value": 0.905}]}
{"sequence": "DEDEEQLRKWTRLTWRDMITGNEDSLHRLFDPHTRLDIDGVDVHGMESVSRKISDEMKRFDHVDFHLHDMRIFNGRAHIDGRLRFHINGVHLERREVIVILKINGQWFNEQISYK", "values": [{"measurement": "protease stability score", "value": 0.196}]}
{"sequence": "DEDEEQTRRAWKINLEQWLTGDEELLDRNLDPDVRNDVNGVRLHGMELLTEMLHRFIEKLKGATIRLKDFRLRFYGNKIEVRVETIVHVNGVQIHVELIFIATKVDGRWRIHEISHHNR", "values": [{"measurement": "protease stability score", "value": 0.868}]}
{"sequence": "DEDEERAKKLAEDTLHSWRTGNEEHMIKLADPNVRVEWNGKDFVGREEFKRSVHKMLRDLGVDNIEVRLDHIEVDEDHAIVYGEVIYNGRISQIEWVFRKVNGRWYLHRMHIRDR", "values": [{"measurement": "protease stability score", "value": 1.54}]}
{"sequence": "DEDEERAQEMAKRLEDSLHTGDEETHQNLMDPHMRLRVNGKEFHGRENILHFLREWRIHHLDVRLRHIDDRGEYIIINSEVRVDGNIDGKRTELHTISEIILVKVDGRWMTDEFRFH", "values": [{"measurement": "protease stability score", "value": 0.72}]}
{"sequence": "DEDEERARHHLEEIIKTIHTGDENLYEKLVDPNAWMDINGRELHGREEVVKYWSHEAHRFGIDVIRLRHEERVGNYVHSDTDLEVNGKTIKTRLVMLKINGKWVIQSFEMH", "values": [{"measurement": "protease stability score", "value": 0.75}]}
{"sequence": "DEDEEREKVYHELHLHNLLTGNEEILANLVDPHVLSIVNGKELHGMDEVRKLWQELGWTWHDIHIHDEKRIGNKVHIDVRLNGNINGRTMIVRAKITITKINGRWYVSHIEII", "values": [{"measurement": "protease stability score", "value": 0.718}]}
{"sequence": "DEDEERIREVVERFLRDWETGDEKSLKHLLDPNVRMIIDGVDIVGREEALRLMKKLVDDLGIKHVHFHRVRLDVQGDKVRSEVDGEFEVGDKHTKVHTLLILRKVDGKWIFESVHMDHK", "values": [{"measurement": "protease stability score", "value": 2.27}]}
{"sequence": "DEDEERKHKILEIWLHSLETGDETKLEEMVDPNVRIEFNGREHHGWEHFLEFVRVFGAKVLHLEDEREDGNKIIHHIVVHVNGRRHTLIVIAHKVNGRWVISSIRFE", "values": [{"measurement": "protease stability score", "value": 1.45}]}
{"sequence": "DEDEERMEHMIHLLDHALETGDWRTISKLIDPHVRLEVNGVNFVGREEIITFLLEIRMSSRIHIKDFRVVGDKLEMEIDSHIDLHYNGKTYQTRVESRLIIKKVNGRWILQESSER", "values": [{"measurement": "protease stability score", "value": 1.15}]}
{"sequence": "DEDEERMHWMVEVLLRMLETGNEEIVKRLVDPNARVHTEDHSSMGREEFSRFMLELAKRFDVFHDVELKHVEVQGEKIILDGKFHIEVNGRRNYLDIELIIIKIDGRWKIEEVRFH", "values": [{"measurement": "protease stability score", "value": 1.25}]}
{"sequence": "DEDEERNEHFLRLYEKITTTGDEDIAKELIDPNARLHVNGKDIHGRESVVKWLKELRIHHLKLRHFRIVGEKAENDISYDVEVDGRTNRRDVHIYLLKIDGRWVIHSIEVR", "values": [{"measurement": "protease stability score", "value": 1.84}]}
{"sequence": "DEDEERSERLLHMVIELLLTGDEEKWNNLLDPHARVEIDGQERHGRHIVTHFLTRFKNVRMHIHDVKVYGEKVDITTEITFNGKHINVHIELVFVNGKMTSVRFEWHRH", "values": [{"measurement": "protease stability score", "value": 2.02}]}
